Reference: publication PMC7794362, “Structural basis for distinct inflammasome complex assembly by human NLRP1 and CARD8” (Nature Communications, 2021)

T1: NLRC4-CARD without SNAP (filament seed) (human, UniProt Q9NPP4 1-102)
T1 construct: CARD domain of human NLRC4, residues 1-102, construct without SNAP tag; source: E. coli BL21(DE3), purified (Ni-NTA, SEC), oligomeric seed fraction
T1 sequence (looked up): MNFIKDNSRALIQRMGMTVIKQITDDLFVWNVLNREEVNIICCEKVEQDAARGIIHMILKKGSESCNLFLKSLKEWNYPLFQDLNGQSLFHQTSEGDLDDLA

B1: recombinant NLRP1-FIIND^UPA-CARD (a.a. 1213-1473), bacteria-derived (domain or fragment, human, UniProt Q9C000 1213-1473, looked up)
chain: SPLGVLLKMIHNALRFIPVTSVVLLYHRVHPEEVTFHLYLIPSDCSIRKAIDDLEMKFQFVRIHKPPPLTPLYMGCRYTVSGSGSGMLEILPKELELCYRSPGEDQLFSEFYVGHLGSGIRLQVKDKKDETLVWEALVKPGDLMPATTLIPPARIAVPSPLDAPQLLHFVDQYREQLIARVTSVEVVLDKLHGQVLSQEQYERVLAENTRPSQMRKLFSLSQSWDRKCKDGLYQALKETHPHLIMELWEKGSKKGLLPLSS
notes: C-terminal auto-cleavage fragment (FIIND^UPA-CARD) of human NLRP1, a.a; 1213-1473; also called NLRP1-FIIND^UPA-CARD filaments; SNAP-NLRP1-FIIND^UPA-CARD
B2: recombinant NLRP1-CARD (filament solved by cryo-EM) (domain or fragment, human, UniProt Q9C000 1374-1466, looked up)
chain: DAPQLLHFVDQYREQLIARVTSVEVVLDKLHGQVLSQEQYERVLAENTRPSQMRKLFSLSQSWDRKCKDGLYQALKETHPHLIMELWEKGSKK
notes: CARD domain of human NLRP1, construct 1374-1466; the results say that trimming of the last eight a.a; (1466-1473) stabilised the homogeneous single filament; two CARD constructs (1374-1466, 1374-1473) were cloned; also called NLRP1-CARD core filament; source: E. coli BL21(DE3), purified (Ni-NTA, SEC), concentrated to ~400 uM
B3: NLRC4-CARD filament (SNAP tag cleaved off), solved by cryo-EM (domain or fragment, human, UniProt Q9NPP4 1-102, looked up)
chain: T1 sequence (looked up)
notes: CARD domain of human NLRC4, residues 1-102; also called NLRC4-CARD thin filament; source: E. coli BL21(DE3), purified; filaments grown from SNAP-tagged monomer with seeds, SNAP cleaved by 3C protease, Superose 6; not shown: SNAP, C-terminal, cleaved
B4: recombinant CARD8-CARD (451-537) (domain or fragment, human, UniProt Q9Y2G2-5 451-537, looked up)
chain: AAFVKENHRQLQARMGDLKGVLDDLQDNEVLTENEKELVEQEKTRQSKNEALLSMVEKKGDLALDVLFRSISERDPYLVSYLRQQNL
notes: CARD domain of human CARD8, residues 451-537; the numbers fit the 537-residue isoform; Called 'untagged' in the seeding experiment, there meaning without the SNAP tag; also called CARD8-CARD filaments; CARD8-CARD without SNAP; source: E. coli BL21(DE3), purified (Ni-NTA, SEC)
B5: CASP1-CARD-SNAP (domain or fragment, human, UniProt P29466 1-92, looked up)
chain: MADKVLKEKRKLFIRSMGEGTINGLLDELLQTRVLNKEEMEKVKRENATVMDKTRALIDSVIPKGAQACQICITYICEEDSYLAGTLGLSAD
modifications: Alexa Fluor 647 (BG-Alexa dye) on the SNAP tag in the native gel assay
notes: CARD domain of human caspase-1, residues 1-92; A 3C protease site lies between the CARD and the SNAP tag; also called SNAP-tagged CASP1-CARD; fluorescently labeled CASP1-CARD; not shown: SNAP, C-terminal, kept

Tests used:
[1] = biological target: the molecule itself; experiment: negative stain EM; recombinant NLRP1 constructs at various concentrations (Fig. 1e, f); samples below ~200 uM; NLRP1-CARD alone or with FIIND^UPA at 1:1 molar ratio
[2] = biological target: the molecule itself; experiment: cryo-EM structure; helical reconstruction of CARD filaments; ~2 mg/ml on Quantifoil R1.2/1.3 grids, Titan Krios 300 kV, RELION 3.0
[3] = biological target: B5; experiment: native gel or EMSA; in vitro oligomerization assay: Alexa Fluor 647-labelled monomeric SNAP-ASC-CARD or CASP1-CARD-SNAP (10 uM) mixed with 20 or 5 uM seed oligomer for 15 min at room temperature; Bis-Tris native PAGE, fluorescence scan; details: both partners purified
[4] = biological target: the molecule itself; experiment: as above
[5] = biological target: T1, NLRC4-CARD without SNAP (filament seed); experiment: as above; details: both partners purified

Binder: B1
- fold lower concentration requirement for oligomerization, against NLRP1-CARD [1]: ≥ 50 fold

Binder: B2
- binding result [2]: binds

Binder: B3
- binding result [2]: binds

Binder: B4
- binding result [2]: binds
- binding result [3]: binds

Binder: B5
- binding result [4]: binds
- binding result [5]: binds
